Data as given in the supplement of paper PMC6757056.
± gives the standard deviation of the averaged measurements.

B1: library; a variant is named by its letters at N, in order (parent)
chain: GCUGUCACCGGUGUAUUACCCUAGUGGUCGACCGGUCUGAUGAGUCUNNNNNNAGACGAAACAGC

How the values were obtained:
hypoxanthine [1] = variants of: B1; experiment: FACS-Seq fitted mean relative fluorescence mCherry/BFP without ligand (log10 relative fluorescence); ligand: hypoxanthine (xanthine aptamer); higher = higher reporter protein expression; details: HEK293T, ligand present: no
Procedure, shortened: (§1)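 Fluorescence is reported as a normalized fitted mean of sorted-bin read counts. Lentivirally transduced HEK293T libraries (mCherry ribozyme-switch reporter, EF1α-BFP marker) were enriched, treated with or without ligand for 48 h, and sorted into 6 mCherry/BFP bins for MiSeq sequencing of PCR-amplified genomic DNA. The normal fit was on log10(mCherry/BFP), scaled to five spiked-in control ribozymes.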

hypoxanthine [2] = variants of: B1; experiment: normalized RNA/DNA level with ligand (relative to sTRSVctl = 100) (log10 (% of sTRSVctl)); ligand: hypoxanthine (xanthine aptamer); higher = less ribozyme self-cleavage, higher mRNA level; details: ligand concentration (+) RNA-Seq: 5 mM, HEK293T, reporter: mCherry (pCS4076), ligand present: yes
Procedure, shortened: (§2)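 RNA level was computed as RNA reads over DNA reads divided by a spiked-in non-cleaving sequence or by the top sequences, then scaled and log-transformed. Scaling was ×100 with log10, the top group was 25 sequences, and the threshold was ≥100 DNA reads. The reads came from HEK293T cells transfected at 4 µg per 6-well well with ribozyme switch library plasmids (mCherry, or eGFP in some ligand experiments). Total RNA was extracted with EDTA 72 h after transfection, with any ligand added 1 h before it.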

hypoxanthine [3] = variants of: B1; experiment: normalized RNA/DNA level without ligand (relative to sTRSVctl = 100) (log10 (% of sTRSVctl)); ligand: hypoxanthine (xanthine aptamer); higher = less ribozyme self-cleavage, higher mRNA level; details: HEK293T, reporter: mCherry (pCS4076), ligand present: no
Procedure, shortened: as §2

hypoxanthine [4] = variants of: B1; experiment: FACS-Seq fitted mean relative fluorescence mCherry/BFP with ligand (log10 relative fluorescence); ligand: hypoxanthine (xanthine aptamer); ligand concentration (+) FACS-Seq: 5 mM; higher = higher reporter protein expression; details: HEK293T, ligand present: yes
Procedure, shortened: as §1

| Variant | FACS-Seq fitted mean (log10) (hypoxanthine [1]) | normalized RNA/DNA level with ligand (log10) (hypoxanthine [2]) | normalized RNA/DNA level without ligand (log10) (hypoxanthine [3]) | FACS-Seq fitted mean (log10) (hypoxanthine [4]) |
| --- | --- | --- | --- | --- |
| AUAUAC | 0.568 ± 0.087 | 1.88 ± 0.019 | 1.8 ± 0.069 | 0.572 ± 0.028 |
| AUAUAG | 0.389 ± 0.046 | 1.83 ± 0.03 | 1.54 ± 0.057 | 0.611 ± 0.076 |
| AUAUAA | 0.487 ± 0.056 | 1.883 ± 0.015 | 1.77 ± 0.027 | 0.6452 ± 0.0064 |
| UUAAGG | 0.505 ± 0.031 | 1.925 ± 0.015 | 1.77 ± 0.058 | 0.538 ± 0.077 |
| UUAAGA | 0.6835 ± 0.0045 | 1.884 ± 0.0019 | 1.68 ± 0.059 | 0.618 ± 0.02 |
| GUAAUU | 0.444 ± 0.086 | 1.91 ± 0.047 | 1.9 ± 0.025 | 0.229 ± 0.036 |
| GUAAUG | 0.27 ± 0.022 | 1.853 ± 0.0059 | 1.52 ± 0.028 | 0.529 ± 0.0072 |
| GUAAUC | 0.801 ± 0.026 | 1.95 ± 0.046 | 1.756 ± 0.012 | 0.81 ± 0.068 |
| GUACGU | 0.418 ± 0.03 | 1.8918 ± 0.0012 | 1.78 ± 0.067 | 0.626 ± 0.09 |
| GUACGG | -0.0891 ± 0.011 | 1.893 ± 0.016 | 1.4 ± 0.048 | 0.337 ± 0.062 |
| AUAAUU | 0.751 ± 0.0089 | 1.92 ± 0.046 | 1.83 ± 0.061 | 0.619 ± 0.013 |
| AUAAUG | 0.211 ± 0.039 | 1.838 ± 0.013 | 1.51 ± 0.064 | 0.551 ± 0.036 |
| AUAAUA | -0.24 ± 0.021 | 1.886 ± 0.012 | 1.82 ± 0.0094 | -0.134 ± 0.044 |
| GUAUAU | -0.558 ± 0.056 | 1.84 ± 0.024 | 1.8 ± 0.041 | -0.474 ± 0.016 |
| GUAUAG | -0.0857 ± 0.034 | 1.854 ± 0.0081 | 1.44 ± 0.065 | 0.479 ± 0.013 |
| GUAUAC | 0.143 ± 0.058 | 1.94 ± 0.067 | 1.82 ± 0.067 | 0.251 ± 0.093 |
| CUAGUC | 0.639 ± 0.036 | 1.99 ± 0.074 | 1.91 ± 0.046 | 0.658 ± 0.03 |
| CUAGUG | -0.00638 ± 0.00052 | 1.95 ± 0.1 | 1.85 ± 0.028 | 0.202 ± 0.017 |
| UUAGGC | 0.15 ± 0.015 | 1.95 ± 0.05 | 1.887 ± 0.014 | 0.181 ± 0.0045 |
| UUAGGG | 0.351 ± 0.012 | 1.87 ± 0.037 | 1.69 ± 0.017 | 0.655 ± 0.028 |
| UGUCGU | 0.313 ± 0.02 | 1.91 ± 0.036 | 1.61 ± 0.041 | 0.591 ± 0.008 |
| GUAACG | 0.351 ± 0.015 | 1.93 ± 0.048 | 1.59 ± 0.022 | 0.537 ± 0.02 |
| AUAGCG | -0.227 ± 0.035 | 1.87 ± 0.045 | 1.36 ± 0.057 | -0.0558 ± 0.023 |
| AUAGCA | 0.241 ± 0.047 | 1.88 ± 0.033 | 1.78 ± 0.023 | 0.455 ± 0.093 |

| Variant | FACS-Seq fitted mean (log10) (hypoxanthine [1]) | normalized RNA/DNA level with ligand (log10) (hypoxanthine [2]) | normalized RNA/DNA level without ligand (log10) (hypoxanthine [3]) | FACS-Seq fitted mean (log10) (hypoxanthine [4]) |
| --- | --- | --- | --- | --- |
| CUACAA | 0.07 ± 0.013 | 1.9 ± 0.013 | 1.79 ± 0.044 | -0.0643 ± 0.025 |
| CUAGGA | 0.7992 ± 0.0063 | 1.938 ± 0.0084 | 1.859 ± 0.018 | 0.697 ± 0.022 |
| CUAGGG | 0.0497 ± 0.042 | 1.89 ± 0.035 | 1.53 ± 0.028 | 0.294 ± 0.039 |
| CGUGAA | -0.0193 ± 0.0065 | 1.87 ± 0.051 | 1.6 ± 0.029 | 0.148 ± 0.033 |
| CUAAGU | 0.447 ± 0.0085 | 1.93 ± 0.023 | 1.86 ± 0.031 | 0.262 ± 0.12 |
| CUAAGC | 0.0548 ± 0.024 | 1.94 ± 0.048 | 1.851 ± 0.0075 | 0.039 ± 0.019 |
| AUAAGU | 0.122 ± 0.094 | 1.852 ± 0.0077 | 1.629 ± 0.011 | 0.279 ± 0.058 |
| AUAAGA | 0.457 ± 0.047 | 1.9 ± 0.045 | 1.715 ± 0.0051 | 0.556 ± 0.068 |
| AUAAGC | 0.474 ± 0.0089 | 1.918 ± 0.014 | 1.786 ± 0.01 | 0.6615 ± 0.0049 |
| AUAAGG | 0.0649 ± 0.081 | 1.8 ± 0.019 | 1.4 ± 0.038 | 0.345 ± 0.062 |
| AUACUG | 0.294 ± 0.022 | 1.86 ± 0.077 | 1.43 ± 0.088 | 0.634 ± 0.025 |
| AUACUA | 0.515 ± 0.014 | 1.9061 ± 0.00059 | 1.774 ± 0.001 | 0.512 ± 0.018 |
| UGUGGA | -0.645 ± 0.11 | 1.91 ± 0.06 | 1.52 ± 0.12 | -0.186 ± 0.061 |
| AGUCGU | 0.577 ± 0.17 | 1.903 ± 0.013 | 1.68 ± 0.029 | 0.561 ± 0.15 |
| AGUCGG | 0.0517 ± 0.00086 | 1.85 ± 0.049 | 1.48 ± 0.085 | 0.38 ± 0.078 |
| GGUUUG | 0.0895 ± 0.042 | 1.9 ± 0.019 | 1.614 ± 0.0086 | 0.485 ± 0.021 |
| GGUUUU | 0.313 ± 0.029 | 1.93 ± 0.053 | 1.894 ± 0.0067 | 0.378 ± 0.028 |
| GGUUUA | 0.149 ± 0.053 | 1.96 ± 0.024 | 1.87 ± 0.034 | 0.3294 ± 0.00074 |
| GGUCUA | 0.4701 ± 0.0031 | 1.896 ± 0.0023 | 1.9 ± 0.022 | 0.586 ± 0.022 |
| CUAGAU | -0.176 ± 0.0088 | 1.96 ± 0.051 | 1.79 ± 0.056 | 0.0723 ± 0.049 |
| CUAGAA | 0.259 ± 0.2 | 1.92 ± 0.032 | 1.79 ± 0.042 | 0.359 ± 0.059 |
| CUAGAC | 0.273 ± 0.014 | 1.901 ± 0.0041 | 1.832 ± 0.011 | 0.149 ± 0.099 |
| CGUUUC | 0.944 ± 0.041 | 1.95 ± 0.058 | 1.908 ± 0.0084 | 0.812 ± 0.15 |
| UUAAUA | 0.528 ± 0.021 | 1.9466 ± 0.0017 | 1.79 ± 0.029 | 0.658 ± 0.014 |

| Variant | FACS-Seq fitted mean (log10) (hypoxanthine [1]) | normalized RNA/DNA level with ligand (log10) (hypoxanthine [2]) | normalized RNA/DNA level without ligand (log10) (hypoxanthine [3]) | FACS-Seq fitted mean (log10) (hypoxanthine [4]) |
| --- | --- | --- | --- | --- |
| AUACCC | 0.513 ± 0.014 | 1.94 ± 0.043 | 1.89 ± 0.027 | 0.292 ± 0.028 |
| AUACCG | 0.00532 ± 0.0097 | 1.84 ± 0.095 | 1.47 ± 0.035 | 0.282 ± 0.082 |
| GUAGAA | 0.2674 ± 0.0022 | 1.89 ± 0.03 | 1.723 ± 0.0046 | 0.342 ± 0.023 |
| GUAGAG | 0.148 ± 0.015 | 1.83 ± 0.073 | 1.31 ± 0.16 | 0.627 ± 0.068 |
| AUAUCG | 0.607 ± 0.0094 | 1.86 ± 0.065 | 1.44 ± 0.045 | 0.756 ± 0.042 |
| UUACGU | 0.582 ± 0.017 | 1.95 ± 0.075 | 1.83 ± 0.025 | 0.566 ± 0.013 |
| UUAACG | 0.325 ± 0.025 | 1.94 ± 0.06 | 1.85 ± 0.052 | 0.41 ± 0.025 |
| AUAAAG | 0.43 ± 0.03 | 1.87 ± 0.024 | 1.51 ± 0.053 | 0.678 ± 0.081 |
| AUAAAU | 0.431 ± 0.027 | 1.9 ± 0.035 | 1.7593 ± 0.00014 | 0.576 ± 0.017 |
| AUAAAC | 0.413 ± 0.047 | 1.893 ± 0.0082 | 1.81 ± 0.023 | 0.517 ± 0.15 |
| UUAAAG | 0.207 ± 0.12 | 1.886 ± 0.0075 | 1.6908 ± 0.00025 | 0.201 ± 0.0094 |
| UUAAAU | 0.322 ± 0.05 | 1.959 ± 0.016 | 1.83 ± 0.024 | 0.322 ± 0.013 |
| UUAAAA | 0.501 ± 0.012 | 1.966 ± 0.016 | 1.795 ± 0.0061 | 0.388 ± 0.15 |
| GGUUAC | 0.247 ± 0.029 | 1.96 ± 0.064 | 1.8 ± 0.066 | 0.276 ± 0.0034 |
| GGUUAG | 0.17 ± 0.041 | 1.726 ± 0.017 | 1.383 ± 0.0095 | 0.458 ± 0.03 |
| GGUGCC | 0.798 ± 0.026 | 2.009 ± 0.0084 | 1.97 ± 0.04 | 0.76 ± 0.035 |
| GGUGCG | 0.452 ± 0.027 | 1.91 ± 0.056 | 1.58 ± 0.094 | 0.656 ± 0.018 |
| GGUGCU | 0.444 ± 0.03 | 2.022 ± 0.015 | 1.977 ± 0.015 | 0.475 ± 0.041 |
| UUAUAC | 0.396 ± 0.054 | 1.908 ± 0.015 | 1.827 ± 0.0035 | 0.632 ± 0.0036 |
| GUAGGC | 0.126 ± 0.003 | 1.87 ± 0.043 | 1.38 ± 0.043 | 0.611 ± 0.02 |
| GUAGGU | 0.5146 ± 0.0047 | 1.95 ± 0.02 | 1.79 ± 0.034 | 0.578 ± 0.11 |
| GUAGGG | 0.143 ± 0.034 | 1.86 ± 0.055 | 1.49 ± 0.037 | 0.5302 ± 0.0037 |
| AUAGGG | 0.023 ± 0.0025 | 1.807 ± 0.011 | 1.38 ± 0.0023 | 0.46 ± 0.053 |
